Test results: PMC9271601

Target: H7N9 A/Shanghai/2/2013 hemagglutinin trimer, wild type (influenza A virus A/Shanghai/02/2013 (H7N9)) (UniProt R4NN21)
Test: cryo-EM structure

Substance: H7N9 A/Shanghai/2/2013 hemagglutinin trimer, wild type (from UniProt R4NN21) (natural protein)
- stoichiometry N: 3
